Experimental data: the Immune Epitope Database (IEDB)

Tests used:
HLA-A*02:19 = assay: IEDB peptide-MHC binding, purified MHC/direct/fluorescence; filed as Kd, often an IC50 or EC50 that approximates it; ≥ and ≤ were set here for values at or beyond the usual limits of such assays
HLA-A*02:16 = assay: as above
HLA-B*39:01 = assay: as above
HLA-A*02:01 [1] = assay: as above
HLA-A*02:03 = assay: as above
HLA-B*46:01 = assay: as above; conditions: source organism: Salmonella enterica subsp. enterica serovar Virchow
HLA-B*15:17 = assay: as above
HLA-B*51:01 [2] = assay: as above
HLA-B*27:03 = assay: as above
HLA-A*02:11 = assay: as above
HLA-A*69:01 = assay: as above
HLA-A*02:12 = assay: as above
HLA-A*03:01 = assay: as above
HLA-A*24:03 = assay: as above
HLA-A*68:02 = assay: as above; conditions: source organism: Salmonella enterica subsp. enterica serovar Virchow
HLA-B*07:02 = assay: as above
HLA-B*15:01 = assay: as above
HLA-A*01:01 = assay: as above
HLA-B*27:05 = assay: as above
HLA-B*58:01 = assay: as above
HLA-B*40:01 = assay: as above
HLA-B*08:01 = assay: as above
HLA-A*30:01 = assay: as above
HLA-A*26:01 = assay: as above
HLA-A*31:01 = assay: as above
HLA-B*44:02 = assay: as above
HLA-A*02:01 [3] = assay: IEDB peptide-MHC binding, purified MHC/competitive/radioactivity; ≥ and ≤ were set here for values at or beyond the usual limits of such assays
HLA-C*07:02 = assay: IEDB peptide-MHC binding, purified MHC/direct/fluorescence; filed as Kd, often an IC50 or EC50 that approximates it; ≥ and ≤ were set here for values at or beyond the usual limits of such assays
HLA-C*14:02 = assay: as above
HLA-C*15:02 = assay: as above
HLA-C*06:02 = assay: as above; conditions: source organism: Mus musculus
HLA-B*48:01 = assay: IEDB peptide-MHC binding, purified MHC/competitive/fluorescence; filed as Kd, often an IC50 or EC50 that approximates it; ≥ and ≤ were set here for values at or beyond the usual limits of such assays; conditions: source organism: Giardia lamblia ATCC 50803
HLA-A*11:01 = assay: IEDB peptide-MHC binding, purified MHC/direct/fluorescence; filed as Kd, often an IC50 or EC50 that approximates it; ≥ and ≤ were set here for values at or beyond the usual limits of such assays
HLA-B*35:01 = assay: as above; conditions: source organism: Vibrio cholerae
HLA-B*51:01 [4] = assay: IEDB peptide-MHC binding, purified MHC/competitive/fluorescence; filed as Kd, often an IC50 or EC50 that approximates it; ≥ and ≤ were set here for values at or beyond the usual limits of such assays; conditions: source organism: Shigella boydii Sb227
HLA-B*83:01 = assay: as above; conditions: source organism: Encephalitozoon cuniculi GB-M1
HLA-B*15:42 = assay: as above; conditions: source organism: Encephalitozoon cuniculi GB-M1
HLA-B*45:06 = assay: as above; conditions: source organism: Encephalitozoon cuniculi GB-M1
HLA-A*29:02 = assay: IEDB peptide-MHC binding, purified MHC/direct/fluorescence; filed as Kd, often an IC50 or EC50 that approximates it; ≥ and ≤ were set here for values at or beyond the usual limits of such assays; conditions: source organism: Encephalitozoon cuniculi GB-M1
HLA-B*57:01 = assay: as above; conditions: source organism: Encephalitozoon cuniculi GB-M1
HLA-B*18:01 = assay: as above; conditions: source organism: Encephalitozoon cuniculi GB-M1
[5] = source organism: Salmonella enterica subsp. enterica serovar Virchow
[6] = source organism: Brucella abortus
[7] = source organism: Brucella melitensis
[8] = source organism: Vaccinia virus Copenhagen
[9] = source organism: Vibrio cholerae
[10] = source organism: Salmonella enterica subsp. enterica serovar Choleraesuis str. SC-B67
[11] = source organism: Salmonella enterica
[12] = source organism: Yersinia pestis
[13] = source organism: Encephalitozoon cuniculi GB-M1
[14] = source organism: Salmonella enterica subsp. enterica serovar Paratyphi B str. SPB7

With CTWPEASRY the Kd (HLA-A*02:19; [5]) was at least 20 µM, the Kd (HLA-A*02:16; [5]) was at least 20 µM and the Kd (HLA-B*39:01; [5]) was at least 20 µM. For the same sequence, the Kd (HLA-A*02:01 [1]; [5]) was at least 20 µM, the Kd (HLA-A*02:03; [5]) was at least 20 µM and the Kd (HLA-B*46:01) was at least 20 µM. It also gave a Kd (HLA-B*15:17; [5]) of 0.026 µM, a Kd (HLA-B*51:01 [2]; [5]) of at least 20 µM and a Kd (HLA-B*27:03; [5]) of at least 20 µM. It also gave a Kd (HLA-A*02:11; [5]) of at least 20 µM, a Kd (HLA-A*69:01; [5]) of at least 20 µM and a Kd (HLA-A*02:12; [5]) of at least 20 µM. It also gave a Kd (HLA-A*03:01; [5]) of at least 20 µM, a Kd (HLA-A*24:03; [5]) of at least 20 µM and a Kd (HLA-A*68:02) of at least 20 µM.
Sequence EKPPVRPIF has a Kd (HLA-B*07:02; [6]) of at least 20 µM, a Kd (HLA-B*15:01; [6]) of at least 20 µM and a Kd (HLA-A*01:01; [6]) of at least 20 µM. The Kd (HLA-B*27:05; [6]) was at least 20 µM, the Kd (HLA-A*02:01 [1]; [6]) was at least 20 µM and the Kd (HLA-B*58:01; [6]) was at least 20 µM. The Kd (HLA-B*40:01; [6]) was at least 20 µM, the Kd (HLA-A*69:01; [6]) was at least 20 µM and the Kd (HLA-B*08:01; [7]) was 5.61 µM. For the same sequence, the Kd (HLA-A*30:01; [7]) was 8.74 µM, the Kd (HLA-A*03:01; [6]) was at least 20 µM and the Kd (HLA-A*26:01; [6]) was at least 20 µM. The Kd (HLA-A*31:01; [6]) was at least 20 µM and the Kd (HLA-B*44:02; [6]) was at least 20 µM.
Work on ALYIPPYEL yielded an IC50 (HLA-A*02:01 [3]; source organism: Rhinovirus A) of 0.586 µM.
Sequence RQASIELPSM has an IC50 (HLA-A*02:01 [3]; source organism: Homo sapiens) of 1.77 µM.
Sequence RYWYFAAEL has a Kd (HLA-C*07:02; [8]) of 1.01 µM and a Kd (HLA-C*14:02; [8]) of 0.015 µM.
Sequence LWFRNHFVF has a Kd (HLA-C*15:02; source organism: Mus musculus) of at least 20 µM and a Kd (HLA-C*06:02) of at least 20 µM.
Sequence GQPHSLASL has a Kd (HLA-B*48:01) of 0.149 µM.
For EIFPNIKIY, the Kd (HLA-B*07:02; [9]) was at least 20 µM, the Kd (HLA-B*15:01; [9]) was 0.465 µM and the Kd (HLA-A*01:01; [9]) was at least 20 µM. For the same sequence, the Kd (HLA-A*11:01; [9]) was at least 20 µM, the Kd (HLA-B*27:05; [9]) was at least 20 µM and the Kd (HLA-A*02:01 [1]; [9]) was at least 20 µM. It also gave a Kd (HLA-B*58:01; [9]) of at least 20 µM, a Kd (HLA-B*40:01; [9]) of at least 20 µM and a Kd (HLA-B*35:01) of 0.164 µM. It also gave a Kd (HLA-A*69:01; [9]) of at least 20 µM, a Kd (HLA-B*08:01; [9]) of at least 20 µM and a Kd (HLA-A*03:01; [9]) of at least 20 µM. The Kd (HLA-A*26:01; [9]) was 0.0738 µM, the Kd (HLA-A*31:01; [9]) was at least 20 µM and the Kd (HLA-B*44:02; [9]) was at least 20 µM.
Sequence RTAKVRAFH has a Kd (HLA-A*11:01; [10]) of 0.069 µM, a Kd (HLA-A*30:01; [10]) of 0.032 µM and a Kd (HLA-A*03:01; [11]) of 0.241 µM. The Kd (HLA-A*31:01; [11]) was 0.15 µM.
In the case of SLYNLVAVL, the IC50 (HLA-A*02:01 [3]; source organism: Human immunodeficiency virus 1) is reported as 0.027 µM.
With VPRVHNQPQ the Kd (HLA-B*07:02; [12]) was 0.0437 µM, the Kd (HLA-B*15:01; [12]) was at least 20 µM and the Kd (HLA-A*01:01; [12]) was at least 20 µM. It also gave a Kd (HLA-A*11:01; [12]) of at least 20 µM, a Kd (HLA-B*27:05; [12]) of at least 20 µM and a Kd (HLA-A*02:01 [1]; [12]) of at least 20 µM. The Kd (HLA-B*58:01; [12]) was at least 20 µM, the Kd (HLA-B*40:01; [12]) was at least 20 µM and the Kd (HLA-A*69:01; [12]) was at least 20 µM. The Kd (HLA-B*08:01; [12]) was 5.69 µM, the Kd (HLA-A*30:01; [12]) was at least 20 µM and the Kd (HLA-A*03:01; [12]) was at least 20 µM. It also gave a Kd (HLA-A*24:03; [12]) of at least 20 µM, a Kd (HLA-A*26:01; [12]) of at least 20 µM and a Kd (HLA-A*31:01; [12]) of at least 20 µM. It also gave a Kd (HLA-B*44:02; [12]) of at least 20 µM.
In the case of FLCKQYLNL, the IC50 (HLA-A*02:01 [3]; source organism: Hepatitis B virus) is reported as 0.029 µM.
With VLYRYGSFSV the IC50 (HLA-A*02:01 [3]; source organism: Homo sapiens) was 0.0132 µM.
For FPAWFAWIF, the Kd (HLA-B*51:01 [4]) was at least 20 µM and the Kd (HLA-C*07:02; source organism: Shigella boydii Sb227) was at least 20 µM.
With FSFFMNENF the Kd (HLA-B*83:01) was at least 5 µM, the Kd (HLA-B*15:42) was at least 5 µM and the Kd (HLA-B*45:06) was at least 5 µM. The Kd (HLA-A*02:19; [13]) was at least 20 µM, the Kd (HLA-A*02:16; [13]) was at least 20 µM and the Kd (HLA-B*39:01; [13]) was at least 20 µM. It also gave a Kd (HLA-A*02:01 [1]; [13]) of at least 20 µM, a Kd (HLA-A*02:03; [13]) of at least 20 µM and a Kd (HLA-B*15:17; [13]) of at most 0.001 µM. The Kd (HLA-A*29:02) was at least 20 µM, the Kd (HLA-B*51:01 [2]; [13]) was at least 20 µM and the Kd (HLA-B*27:03; [13]) was at least 20 µM. For the same sequence, the Kd (HLA-A*02:11; [13]) was at least 20 µM, the Kd (HLA-B*57:01) was at least 20 µM and the Kd (HLA-A*02:12; [13]) was at least 20 µM. It also gave a Kd (HLA-A*03:01; [13]) of at least 20 µM, a Kd (HLA-A*24:03; [13]) of at least 20 µM and a Kd (HLA-A*26:01; [13]) of at least 20 µM. For the same sequence, the Kd (HLA-B*18:01) was at least 20 µM.
SVFTGLLPF showed a Kd (HLA-C*07:02; [14]) of 0.507 µM, a Kd (HLA-C*15:02; [14]) of 12.3 µM and a Kd (HLA-C*14:02; [14]) of 0.56 µM.
